From article PMC7038937

Assays:
Assay in all cases: fluorescence anisotropy
[1] = molecular target: dsRBD3/4 I105A S106A E110A L113A (Homo sapiens, UniProt O95793-2 102-274, I105A;S106A;E110A;L113A)
STAU1 dsRBD3 = STAU1 dsRBD3 (Homo sapiens, UniProt O95793-2 102-181)
dsRBD3/4 F109A = dsRBD3/4 F109A (Homo sapiens, UniProt O95793-2 102-274, F109A)
[2] = molecular target: dsRBD3/4 S208A Q212A Q215A (Homo sapiens, UniProt O95793-2 102-274, S208A;Q212A;Q215A)
dsRBD3/4 F109A R209A = dsRBD3/4 F109A R209A (Homo sapiens, UniProt O95793-2 102-274, F109A;R209A)
dsRBD3 E110A L113A = dsRBD3 E110A L113A (Homo sapiens, UniProt O95793-2 102-181, E110A;L113A)
dsRBD3/4 Q212A Q215A = dsRBD3/4 Q212A Q215A (Homo sapiens, UniProt O95793-2 102-274, Q212A;Q215A)
dsRBD4 S208A Q212A Q215A = dsRBD4 S208A Q212A Q215A (Homo sapiens, UniProt O95793-2 205-274, S208A;Q212A;Q215A)
dsRBD3/4 E110A L113A = dsRBD3/4 E110A L113A (Homo sapiens, UniProt O95793-2 102-274, E110A;L113A)
[3] = molecular target: dsRBD3/4 E110A L113A Q212A Q215A (Homo sapiens, UniProt O95793-2 102-274, E110A;L113A;Q212A;Q215A)
STAU1 dsRBD4 = STAU1 dsRBD4 (Homo sapiens, UniProt O95793-2 205-274)
dsRBD3/4 I105A S106A = dsRBD3/4 I105A S106A (Homo sapiens, UniProt O95793-2 102-274, I105A;S106A)
STAU1 dsRBD3/4 = STAU1 dsRBD3/4 (Homo sapiens, UniProt O95793-2 102-274)
dsRBD4 Q212A Q215A = dsRBD4 Q212A Q215A (Homo sapiens, UniProt O95793-2 205-274, Q212A;Q215A)
dsRBD3/4 R234A R236A = dsRBD3/4 R234A R236A (Homo sapiens, UniProt O95793-2 102-274, R234A;R236A)
dsRBD3/4 R209A = dsRBD3/4 R209A (Homo sapiens, UniProt O95793-2 102-274, R209A)
[4] = molecular target: dsRBD3/4 I105A S106A S208A Q212A Q215A (Homo sapiens, UniProt O95793-2 102-274, I105A;S106A;S208A;Q212A;Q215A)
dsRBD3/4 S208A = dsRBD3/4 S208A (Homo sapiens, UniProt O95793-2 102-274, S208A)
dsRBD3 I105A S106A = dsRBD3 I105A S106A (Homo sapiens, UniProt O95793-2 102-181, I105A;S106A)
dsRBD3 F109A = dsRBD3 F109A (Homo sapiens, UniProt O95793-2 102-181, F109A)
dsRBD3/4 K133A = dsRBD3/4 K133A (Homo sapiens, UniProt O95793-2 102-274, K133A)
Sequence of dsRBD3/4 K133A (O95793 183-355 K214A): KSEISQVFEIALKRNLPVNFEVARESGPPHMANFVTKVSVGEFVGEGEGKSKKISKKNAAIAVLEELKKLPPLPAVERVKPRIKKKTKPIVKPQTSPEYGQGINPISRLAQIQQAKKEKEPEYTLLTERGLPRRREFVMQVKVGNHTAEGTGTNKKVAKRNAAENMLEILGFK

Sequence of STAU1 dsRBD3/4 (O95793 183-355): as the sequence (O95793 183-355 K214A) above, with A32K counted along it
Sequence of dsRBD3/4 I105A S106A S208A Q212A Q215A (O95793 183-355 I186A/S187A/S289A/Q293A/Q296A): as the sequence (O95793 183-355 K214A) above, with I4A, S5A, A32K, S107A, Q111A, Q114A counted along it
Sequence of STAU1 dsRBD4 (O95793 286-355): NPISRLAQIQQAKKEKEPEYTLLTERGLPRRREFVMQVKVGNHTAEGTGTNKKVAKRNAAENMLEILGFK
Sequence of dsRBD3/4 E110A L113A Q212A Q215A (O95793 183-355 E191A/L194A/Q293A/Q296A): as the sequence (O95793 183-355 K214A) above, with E9A, L12A, A32K, Q111A, Q114A counted along it
Sequence of dsRBD3/4 I105A S106A E110A L113A (O95793 183-355 I186A/S187A/E191A/L194A): as the sequence (O95793 183-355 K214A) above, with I4A, S5A, E9A, L12A, A32K counted along it
Sequence of dsRBD3 E110A L113A (O95793 183-262 E191A/L194A): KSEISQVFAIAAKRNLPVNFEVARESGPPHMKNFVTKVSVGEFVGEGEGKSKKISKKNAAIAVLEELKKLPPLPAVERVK
Sequence of STAU1 dsRBD3 (O95793 183-262): as the sequence (O95793 183-262 E191A/L194A) above, with A9E, A12L counted along it
Sequence of dsRBD4 Q212A Q215A (O95793 286-355 Q293A/Q296A): as the sequence (O95793 286-355) above, with Q8A, Q11A counted along it
Sequence of dsRBD3/4 R209A (O95793 183-355 R290A): as the sequence (O95793 183-355 K214A) above, with A32K, R108A counted along it
Sequence of dsRBD3/4 F109A (O95793 183-355 F190A): as the sequence (O95793 183-355 K214A) above, with F8A, A32K counted along it
Sequence of dsRBD3/4 I105A S106A (O95793 183-355 I186A/S187A): as the sequence (O95793 183-355 K214A) above, with I4A, S5A, A32K counted along it
Sequence of dsRBD3 F109A (O95793 183-262 F190A): as the sequence (O95793 183-262 E191A/L194A) above, with F8A, A9E, A12L counted along it
Sequence of dsRBD3/4 S208A (O95793 183-355 S289A): as the sequence (O95793 183-355 K214A) above, with A32K, S107A counted along it
Sequence of dsRBD3 I105A S106A (O95793 183-262 I186A/S187A): as the sequence (O95793 183-262 E191A/L194A) above, with I4A, S5A, A9E, A12L counted along it
Sequence of dsRBD3/4 F109A R209A (O95793 183-355 F190A/R290A): as the sequence (O95793 183-355 K214A) above, with F8A, A32K, R108A counted along it
Sequence of dsRBD4 S208A Q212A Q215A (O95793 286-355 S289A/Q293A/Q296A): as the sequence (O95793 286-355) above, with S4A, Q8A, Q11A counted along it
Sequence of dsRBD3/4 S208A Q212A Q215A (O95793 183-355 S289A/Q293A/Q296A): as the sequence (O95793 183-355 K214A) above, with A32K, S107A, Q111A, Q114A counted along it
Sequence of dsRBD3/4 E110A L113A (O95793 183-355 E191A/L194A): as the sequence (O95793 183-355 K214A) above, with E9A, L12A, A32K counted along it
Sequence of dsRBD3/4 Q212A Q215A (O95793 183-355 Q293A/Q296A): as the sequence (O95793 183-355 K214A) above, with A32K, Q111A, Q114A counted along it
Sequence of dsRBD3/4 R234A R236A (O95793 183-355 R315A/R317A): as the sequence (O95793 183-355 K214A) above, with A32K, R133A, R135A counted along it

GGCAGAAGCUGCCUCUUCGGAGGCAGUUUCUGCC (structured_RNA) [top 2/3 ARF1 SBS (sARF1 SBS)]
Kd [1]: 21.8 ± 6.4 nM | Kd (STAU1 dsRBD3): 41.4 ± 1.5 nM | Kd (dsRBD3/4 F109A): 29.7 ± 5.8 nM | Kd [2]: 87.2 ± 3 nM | Kd (dsRBD3/4 F109A R209A): 27.7 ± 5.5 nM | Kd (dsRBD3 E110A L113A): 31.5 ± 1.7 nM | Kd (dsRBD3/4 Q212A Q215A): 15.3 ± 0.7 nM | Kd (dsRBD4 S208A Q212A Q215A): 390 ± 38.4 nM | Kd (dsRBD3/4 E110A L113A): 18.5 ± 4.3 nM | Kd [3]: 18.5 ± 1.1 nM | Kd (STAU1 dsRBD4): 74.8 ± 17.6 nM | Kd (dsRBD3/4 I105A S106A): 28.8 ± 2.7 nM | Kd (STAU1 dsRBD3/4): 17.8 ± 4.3 nM | Kd (dsRBD4 Q212A Q215A): 121 ± 15 nM | Kd (dsRBD3/4 R234A R236A): 26 ± 9.1 nM | Kd (dsRBD3/4 R209A): 17.7 ± 4.1 nM | Kd [4]: 43.7 ± 5.2 nM | Kd (dsRBD3/4 S208A): 28 ± 4.4 nM | Kd (dsRBD3 I105A S106A): 147 ± 35.6 nM | Kd (dsRBD3 F109A): 98.2 ± 8.7 nM | Kd (dsRBD3/4 K133A): 23.2 ± 9.7 nM

GGCGAGUGCCAGAAGCUGUCUCCUUCGGGAGGCAGUUUCUGGUACUCGCC (structured_RNA) [long ARF1 SBS (19 bp, UUCG loop)]
Kd (STAU1 dsRBD3/4): 26.5 ± 2.9 nM

GGAGUGCCAGAAGCUACGGUUUCUGGUACUCC (structured_RNA) [bottom 2/3 ARF1 SBS]
Kd (STAU1 dsRBD3/4): 31 ± 0.1 nM
